Laboratory results reported in paper PMC314469, “Protein Interaction Networks by Proteome Peptide Scanning” (PLoS Biology, 2004).
Blank lines part the entries; values can stand above or below the binder they belong to.

How the values were obtained:
Assay in all cases: SPOT array
[1] = target: T1, Boi1 SH3 (BOI1_YEAST), P38041
T1 chain: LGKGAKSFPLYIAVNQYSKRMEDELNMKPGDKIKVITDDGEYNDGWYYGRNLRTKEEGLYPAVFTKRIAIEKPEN

[2] = target: Sho1 SH3 (SHO1_YEAST), P40073
[3] = target: T2, Yhr016c SH3 (YSC84_YEAST), P32793
T2 chain: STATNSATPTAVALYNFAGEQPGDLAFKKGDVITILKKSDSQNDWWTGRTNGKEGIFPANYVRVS

[4] = target: T3, Yfr024 SH3 (LSB3_YEAST), P43603
T3 chain: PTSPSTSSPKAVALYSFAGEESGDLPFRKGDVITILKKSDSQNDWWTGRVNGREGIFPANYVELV

[5] = target: T4, Myo5 SH3 (MYO5_YEAST), Q04439
T4 chain: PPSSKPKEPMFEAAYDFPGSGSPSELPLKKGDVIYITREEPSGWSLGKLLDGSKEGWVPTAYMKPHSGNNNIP

[6] = target: T5, Boi2 SH3 (BOI2_YEAST), P39969
T5 chain: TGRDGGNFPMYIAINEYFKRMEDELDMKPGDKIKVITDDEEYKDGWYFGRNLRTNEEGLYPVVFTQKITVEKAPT

[7] = target: T6, Rvs167 SH3 (RV167_YEAST), P39743
T6 chain: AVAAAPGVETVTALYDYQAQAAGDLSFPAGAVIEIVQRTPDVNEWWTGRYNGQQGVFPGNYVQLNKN

Sequence of Sho1 SH3 (SHO1_YEAST), P40073 (P40073 295-366): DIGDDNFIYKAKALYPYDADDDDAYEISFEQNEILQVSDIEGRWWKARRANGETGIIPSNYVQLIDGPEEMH

normalised SPOT signal, Boehringer light units (BLU); mean over the file's lines of this peptide [1]: 0
normalised SPOT signal, Boehringer light units (BLU); mean over the file's lines of this peptide [2]: 45.2
normalised SPOT signal, Boehringer light units (BLU); mean over the file's lines of this peptide [3]: 0
normalised SPOT signal, Boehringer light units (BLU); mean over the file's lines of this peptide [4]: 92
normalised SPOT signal, Boehringer light units (BLU); mean over the file's lines of this peptide [5]: 171
normalised SPOT signal, Boehringer light units (BLU); mean over the file's lines of this peptide [6]: 0
normalised SPOT signal, Boehringer light units (BLU); mean over the file's lines of this peptide [7]: 86.7
B1: YPL093W 369-382 (peptide)
chain: RDDVKRTPFIPESV

normalised SPOT signal, Boehringer light units (BLU); mean over the file's lines of this peptide [1]: 2030
normalised SPOT signal, Boehringer light units (BLU); mean over the file's lines of this peptide [2]: 124
normalised SPOT signal, Boehringer light units (BLU); mean over the file's lines of this peptide [3]: 184
normalised SPOT signal, Boehringer light units (BLU); mean over the file's lines of this peptide [4]: 2420
normalised SPOT signal, Boehringer light units (BLU); mean over the file's lines of this peptide [5]: 564
normalised SPOT signal, Boehringer light units (BLU); mean over the file's lines of this peptide [6]: 54.1
normalised SPOT signal, Boehringer light units (BLU); mean over the file's lines of this peptide [7]: 774
B2: YMR031W-A 89-102 (peptide)
chain: RFSSRRAPIAPSGK

normalised SPOT signal, Boehringer light units (BLU); mean over the file's lines of this peptide [1]: 1510
normalised SPOT signal, Boehringer light units (BLU); mean over the file's lines of this peptide [2]: 169
normalised SPOT signal, Boehringer light units (BLU); mean over the file's lines of this peptide [3]: 46.3
normalised SPOT signal, Boehringer light units (BLU); mean over the file's lines of this peptide [4]: 592
normalised SPOT signal, Boehringer light units (BLU); mean over the file's lines of this peptide [5]: 547
normalised SPOT signal, Boehringer light units (BLU); mean over the file's lines of this peptide [6]: 3.1
normalised SPOT signal, Boehringer light units (BLU); mean over the file's lines of this peptide [7]: 55.6
B3: YDR474C 379-392 (peptide)
chain: RIRDKSKPSSPTAT

normalised SPOT signal, Boehringer light units (BLU); mean over the file's lines of this peptide [1]: 375
normalised SPOT signal, Boehringer light units (BLU); mean over the file's lines of this peptide [2]: 166
normalised SPOT signal, Boehringer light units (BLU); mean over the file's lines of this peptide [3]: 65.9
normalised SPOT signal, Boehringer light units (BLU); mean over the file's lines of this peptide [4]: 296
normalised SPOT signal, Boehringer light units (BLU); mean over the file's lines of this peptide [5]: 403
normalised SPOT signal, Boehringer light units (BLU); mean over the file's lines of this peptide [6]: 40.3
normalised SPOT signal, Boehringer light units (BLU); mean over the file's lines of this peptide [7]: 133
B4: YML127W 362-375 (peptide)
chain: RLIKRLKPPAPKEP

normalised SPOT signal, Boehringer light units (BLU); mean over the file's lines of this peptide [1]: 705
normalised SPOT signal, Boehringer light units (BLU); mean over the file's lines of this peptide [2]: 135
normalised SPOT signal, Boehringer light units (BLU); mean over the file's lines of this peptide [3]: 31.9
normalised SPOT signal, Boehringer light units (BLU); mean over the file's lines of this peptide [4]: 212
normalised SPOT signal, Boehringer light units (BLU); mean over the file's lines of this peptide [5]: 274
normalised SPOT signal, Boehringer light units (BLU); mean over the file's lines of this peptide [6]: 18.7
normalised SPOT signal, Boehringer light units (BLU); mean over the file's lines of this peptide [7]: 77.6
B5: YBR079C 874-887 (peptide)
chain: RAGNREPPSTPSTL

normalised SPOT signal, Boehringer light units (BLU); mean over the file's lines of this peptide [1]: 123
normalised SPOT signal, Boehringer light units (BLU); mean over the file's lines of this peptide [2]: 230
normalised SPOT signal, Boehringer light units (BLU); mean over the file's lines of this peptide [3]: 109
normalised SPOT signal, Boehringer light units (BLU); mean over the file's lines of this peptide [4]: 1820
normalised SPOT signal, Boehringer light units (BLU); mean over the file's lines of this peptide [5]: 296
normalised SPOT signal, Boehringer light units (BLU); mean over the file's lines of this peptide [6]: 145
normalised SPOT signal, Boehringer light units (BLU); mean over the file's lines of this peptide [7]: 140
B6: YBR200W 345-358 (peptide)
chain: QWSKRIMPYIPGPV

normalised SPOT signal, Boehringer light units (BLU); mean over the file's lines of this peptide [1]: 3920
normalised SPOT signal, Boehringer light units (BLU); mean over the file's lines of this peptide [2]: 27.8
normalised SPOT signal, Boehringer light units (BLU); mean over the file's lines of this peptide [3]: 36.3
normalised SPOT signal, Boehringer light units (BLU); mean over the file's lines of this peptide [4]: 184
normalised SPOT signal, Boehringer light units (BLU); mean over the file's lines of this peptide [5]: 188
normalised SPOT signal, Boehringer light units (BLU); mean over the file's lines of this peptide [6]: 11.9
normalised SPOT signal, Boehringer light units (BLU); mean over the file's lines of this peptide [7]: 30.2
B7: YPR107C 40-53 (peptide)
chain: REGPKSSPRGPLSP

normalised SPOT signal, Boehringer light units (BLU); mean over the file's lines of this peptide [1]: 150
normalised SPOT signal, Boehringer light units (BLU); mean over the file's lines of this peptide [2]: 5160
normalised SPOT signal, Boehringer light units (BLU); mean over the file's lines of this peptide [3]: 48
normalised SPOT signal, Boehringer light units (BLU); mean over the file's lines of this peptide [4]: 102
normalised SPOT signal, Boehringer light units (BLU); mean over the file's lines of this peptide [5]: 70.4
normalised SPOT signal, Boehringer light units (BLU); mean over the file's lines of this peptide [6]: 83.3
normalised SPOT signal, Boehringer light units (BLU); mean over the file's lines of this peptide [7]: 101
B8: YBL016W 257-270 (peptide)
chain: REYIKSLPMYPAAP

normalised SPOT signal, Boehringer light units (BLU); mean over the file's lines of this peptide [1]: 95.9
normalised SPOT signal, Boehringer light units (BLU); mean over the file's lines of this peptide [2]: 479
normalised SPOT signal, Boehringer light units (BLU); mean over the file's lines of this peptide [3]: 597
normalised SPOT signal, Boehringer light units (BLU); mean over the file's lines of this peptide [4]: 2080
normalised SPOT signal, Boehringer light units (BLU); mean over the file's lines of this peptide [5]: 802
normalised SPOT signal, Boehringer light units (BLU); mean over the file's lines of this peptide [6]: 120
normalised SPOT signal, Boehringer light units (BLU); mean over the file's lines of this peptide [7]: 562
B9: YGR255C 239-252 (peptide)
chain: RGWQRFLPTGPIAH

normalised SPOT signal, Boehringer light units (BLU); mean over the file's lines of this peptide [1]: 341
normalised SPOT signal, Boehringer light units (BLU); mean over the file's lines of this peptide [2]: 175
normalised SPOT signal, Boehringer light units (BLU); mean over the file's lines of this peptide [3]: 17.7
normalised SPOT signal, Boehringer light units (BLU); mean over the file's lines of this peptide [4]: 304
normalised SPOT signal, Boehringer light units (BLU); mean over the file's lines of this peptide [5]: 1940
normalised SPOT signal, Boehringer light units (BLU); mean over the file's lines of this peptide [6]: 22.2
normalised SPOT signal, Boehringer light units (BLU); mean over the file's lines of this peptide [7]: 56.3
B10: YMR109W 1006-1019 (peptide)
chain: RHSKKPAPPPPGMQ

normalised SPOT signal, Boehringer light units (BLU); mean over the file's lines of this peptide [1]: 487
normalised SPOT signal, Boehringer light units (BLU); mean over the file's lines of this peptide [2]: 177
normalised SPOT signal, Boehringer light units (BLU); mean over the file's lines of this peptide [3]: 970
normalised SPOT signal, Boehringer light units (BLU); mean over the file's lines of this peptide [4]: 4260
normalised SPOT signal, Boehringer light units (BLU); mean over the file's lines of this peptide [5]: 279
normalised SPOT signal, Boehringer light units (BLU); mean over the file's lines of this peptide [6]: 1230
normalised SPOT signal, Boehringer light units (BLU); mean over the file's lines of this peptide [7]: 1610
B11: YNL317W 375-388 (peptide)
chain: RFWTRARPIDPNAY

normalised SPOT signal, Boehringer light units (BLU); mean over the file's lines of this peptide [1]: 1390
normalised SPOT signal, Boehringer light units (BLU); mean over the file's lines of this peptide [2]: 89.7
normalised SPOT signal, Boehringer light units (BLU); mean over the file's lines of this peptide [3]: 50.6
normalised SPOT signal, Boehringer light units (BLU); mean over the file's lines of this peptide [4]: 13.7
normalised SPOT signal, Boehringer light units (BLU); mean over the file's lines of this peptide [5]: 395
normalised SPOT signal, Boehringer light units (BLU); mean over the file's lines of this peptide [6]: -0
normalised SPOT signal, Boehringer light units (BLU); mean over the file's lines of this peptide [7]: 40.6
B12: YJL117W 12-25 (peptide)
chain: RKSDKNAPSVPQVD

normalised SPOT signal, Boehringer light units (BLU); mean over the file's lines of this peptide [1]: 11
normalised SPOT signal, Boehringer light units (BLU); mean over the file's lines of this peptide [2]: 31.6
normalised SPOT signal, Boehringer light units (BLU); mean over the file's lines of this peptide [3]: 5.4
normalised SPOT signal, Boehringer light units (BLU); mean over the file's lines of this peptide [4]: 9.3
normalised SPOT signal, Boehringer light units (BLU); mean over the file's lines of this peptide [5]: 153
normalised SPOT signal, Boehringer light units (BLU); mean over the file's lines of this peptide [6]: 3.6
normalised SPOT signal, Boehringer light units (BLU); mean over the file's lines of this peptide [7]: 22.8
B13: YDR416W 606-619 (peptide)
chain: QVYEKTIPLFPPEI
